The source of these data is publication PMC6079037.

Several values for one entry are separate records, joined by “and”; a condition that tells them apart may be missing. Equal values may be shown once.

For assay [1], the target named is NoHmTSP.V5, truncated HmTSP comprising the N-terminal domain plus the putative oligomerization region (aa 1-296) (Hydra magnipapillata). As to the kind of experiment: non-reducing SDS-PAGE and immunoblot; V5-tagged proteins from conditioned media of transfected COS7 cells, collected on Talon resin, boiled in SDS sample buffer without DTT; 7% SDS-polyacrylamide gels; V5 antibody blot. (In general: Immunoblotting shows a protein as a band on a membrane.)

Assay [2] has as its target full-length HmTSP-His (Hydra magnipapillata thrombospondin) (Hydra magnipapillata). As to the kind of experiment: non-reducing SDS-PAGE and immunoblot; HmTSP-His from lysates of transfected HEK293T cells, collected on Ni-NTA, eluted in non-reducing SDS sample buffer; 4-20% gradient gels; anti-penta-His blot; laminin chains and prestained markers as size references.
The target of assay [3] is HmTSPcc, 25aa synthetic peptide corresponding to HmTSP residues 249-273 (Hydra magnipapillata). As to the kind of experiment: AUC; sedimentation equilibrium; HmTSPcc 400 uM in PBS, 20 °C, 30,000-46,000 rpm; fitted to a single, ideal species model.

On to “NoHmTSP.V5, truncated HmTSP comprising the N-terminal domain plus the putative oligomerization region (aa 1-296) (domain or fragment)”, for which the stoichiometry N (as a rule, the number of molecules, sites or subunits per partner or assembly) in assay [1] was 5 and 4.
“full-length HmTSP-His (Hydra magnipapillata thrombospondin) (natural protein)” came in with a stoichiometry N in assay [2] above 4.
Turning to “HmTSPcc, 25aa synthetic peptide corresponding to HmTSP residues 249-273”, the stoichiometry N (x monomer mass) in assay [3] came to 2.98.
